# Experimental data published in patent publication US20190233493A1 (Sanofi, published 2019).
# *1 amine or outer side, *2 acyl side, *3 side chain or, on linkers, in order; H or OH if unused. Primed or numbered codes have the meaning given here. Side-chain parts run from the residue outwards. [ ]: non-standard residue; d: D form. The star is where a group is joined. PEG8′ = 2-[2-[2-[2-[2-[2-[2-[2-[2-aminoethoxy]ethoxy]ethoxy]ethoxy]ethoxy]ethoxy]ethoxy]ethoxy]ethoxy]propanoyl; TTDS″ = 4-[3-[2-[2-(3-aminopropoxy)ethoxy]ethoxy]propylamino]-4-oxo-butanoyl; TtdDga = O=C(COCC(=O)[*:2])NCCCOCCOCCOCCCN[*:1]; γGlu = O=C(O)[C@H](CCC(=O)[*:2])N[*:1]; Pentadecanoyl = CCCCCCCCCCCCCCC(=O)*; Stearoyl = CCCCCCCCCCCCCCCCCC(=O)*; Palmitoyl = CCCCCCCCCCCCCCCC(=O)*; Myristoyl = CCCCCCCCCCCCCC(=O)*; αMeK = C[C@](N)(CCCCN)C(=O)O; Nle = CCCC[C@H](N)C(=O)O; PEG2′ = PEG2 spacer unit; Aib = CC(C)(N)C(=O)O
# T1: RXFP1 receptor (UniProt Q9HBX9 1-757, limits assumed)
# T1 sequence (looked up): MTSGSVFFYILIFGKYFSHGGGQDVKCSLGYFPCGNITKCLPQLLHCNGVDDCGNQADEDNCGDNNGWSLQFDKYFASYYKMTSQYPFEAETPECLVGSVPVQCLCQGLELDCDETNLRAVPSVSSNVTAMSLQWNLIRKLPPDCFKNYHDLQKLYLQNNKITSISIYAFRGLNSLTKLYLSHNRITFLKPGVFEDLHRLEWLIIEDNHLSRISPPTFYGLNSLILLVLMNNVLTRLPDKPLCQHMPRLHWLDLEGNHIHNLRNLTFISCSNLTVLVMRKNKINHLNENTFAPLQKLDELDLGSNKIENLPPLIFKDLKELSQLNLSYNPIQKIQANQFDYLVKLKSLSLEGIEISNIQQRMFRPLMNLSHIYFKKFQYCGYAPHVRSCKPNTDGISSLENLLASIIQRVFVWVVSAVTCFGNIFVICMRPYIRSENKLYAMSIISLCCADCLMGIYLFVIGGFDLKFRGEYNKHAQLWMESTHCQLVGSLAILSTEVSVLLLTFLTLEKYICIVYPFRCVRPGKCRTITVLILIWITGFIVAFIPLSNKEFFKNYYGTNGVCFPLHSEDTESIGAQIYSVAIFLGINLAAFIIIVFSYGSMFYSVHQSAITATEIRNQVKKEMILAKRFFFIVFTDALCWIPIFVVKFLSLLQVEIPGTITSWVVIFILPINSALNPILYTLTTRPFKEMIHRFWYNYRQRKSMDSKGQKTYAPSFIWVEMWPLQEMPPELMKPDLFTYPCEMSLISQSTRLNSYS
# Target: T1, RXFP1 receptor
# Assay: cell-based or functional assay
"EC50 (nM), OVCAR 5 cells (cAMP)","EMax, OVCAR 5 cells (cAMP)",Binder
17.6 nM,93%,Ac-LEGREKVRAK(Ac)I[Aib][Aib]EG[Nle]STWS[Aib]RKK(Ac)K([PEG2′-PEG2′-PEG2′-γGlu-γGlu-γGlu-Myristoyl])-NH2 [peptide of SEQ ID NO: 178]
0.05 nM,100%,Ac-LEGREKVRAK(Ac)I[Aib][Aib]EGQSTFS[αMeK]RAK(Ac)[PEG2′][PEG2′][PEG2′][PEG2′][γGlu][γGlu]K([γGlu-γGlu-Palmitoyl])-NH2 [peptide of SEQ ID NO: 185]
0.18 nM,100%,Ac-LEGREKVRAK(Ac)I[Aib][Aib]EGQSTFS[αMeK]RAK(Ac)[PEG2′][PEG2′][PEG2′][PEG2′][γGlu][γGlu]K([γGlu-γGlu-Pentadecanoyl])-NH2 [peptide of SEQ ID NO: 186]
0.41 nM,83%,Ac-LEGREKVRAK(Ac)I[Aib][Aib]EG[Nle]STWS[Aib]RKK(Ac)[TtdDga]K([γGlu-γGlu-γGlu-Stearoyl])-NH2 (SMILES CCCCCCCCCCCCCCCCCC(=O)N[C@@H](CCC(=O)N[C@@H](CCC(=O)N[C@@H](CCC(=O)NCCCC[C@H](NC(=O)COCC(=O)NCCCOCCOCCOCCCNC(=O)[C@H](CCCCNC(C)=O)NC(=O)[C@H](CCCCN)NC(=O)[C@H](CCCNC(=N)N)NC(=O)C(C)(C)NC(=O)[C@H](CO)NC(=O)[C@H](Cc1c[nH]c2ccccc12)NC(=O)[C@@H](NC(=O)[C@H](CO)NC(=O)[C@H](CCCC)NC(=O)CNC(=O)[C@H](CCC(=O)O)NC(=O)C(C)(C)NC(=O)C(C)(C)NC(=O)[C@@H](NC(=O)[C@H](CCCCNC(C)=O)NC(=O)[C@H](C)NC(=O)[C@H](CCCNC(=N)N)NC(=O)[C@@H](NC(=O)[C@H](CCCCN)NC(=O)[C@H](CCC(=O)O)NC(=O)[C@H](CCCNC(=N)N)NC(=O)CNC(=O)[C@H](CCC(=O)O)NC(=O)[C@H](CC(C)C)NC(C)=O)C(C)C)[C@@H](C)CC)[C@@H](C)O)C(N)=O)C(=O)O)C(=O)O)C(=O)O) [peptide of SEQ ID NO: 18]
3 nM,90%,Ac-LEGREKVRAK(Ac)I[Aib][Aib]EGQSTWS[Aib]RKK(Ac)[TtdDga]K([γGlu-γGlu-γGlu-Palmitoyl])-NH2 (SMILES CCCCCCCCCCCCCCCC(=O)N[C@@H](CCC(=O)N[C@@H](CCC(=O)N[C@@H](CCC(=O)NCCCC[C@H](NC(=O)COCC(=O)NCCCOCCOCCOCCCNC(=O)[C@H](CCCCNC(C)=O)NC(=O)[C@H](CCCCN)NC(=O)[C@H](CCCNC(=N)N)NC(=O)C(C)(C)NC(=O)[C@H](CO)NC(=O)[C@H](Cc1c[nH]c2ccccc12)NC(=O)[C@@H](NC(=O)[C@H](CO)NC(=O)[C@H](CCC(N)=O)NC(=O)CNC(=O)[C@H](CCC(=O)O)NC(=O)C(C)(C)NC(=O)C(C)(C)NC(=O)[C@@H](NC(=O)[C@H](CCCCNC(C)=O)NC(=O)[C@H](C)NC(=O)[C@H](CCCNC(=N)N)NC(=O)[C@@H](NC(=O)[C@H](CCCCN)NC(=O)[C@H](CCC(=O)O)NC(=O)[C@H](CCCNC(=N)N)NC(=O)CNC(=O)[C@H](CCC(=O)O)NC(=O)[C@H](CC(C)C)NC(C)=O)C(C)C)[C@@H](C)CC)[C@@H](C)O)C(N)=O)C(=O)O)C(=O)O)C(=O)O) [peptide of SEQ ID NO: 176]
19.9 nM,80%,Ac-LEGREKVRAK(Ac)I[Aib][Aib]EGQSTYS[Aib]RKK(Ac)[PEG2′][PEG2′][PEG2′]K([γGlu-γGlu-γGlu-Palmitoyl])-NH2 [peptide of SEQ ID NO: 179]
0.19 nM,99%,Ac-LEGREKVRAK(Ac)I[Aib][Aib]EGQSTFS[αMeK]RAK(Ac)[PEG2′][PEG2′][PEG2′][PEG2′]K([γGlu-γGlu-γGlu-γGlu-Pentadecanoyl])-NH2 [peptide of SEQ ID NO: 182]
1.63 nM,79%,Ac-LEGREKVRAK(Ac)I[Aib][Aib]EG[Nle]STWS[Aib]RKK(Ac)[PEG8′]K([γGlu-γGlu-γGlu-Palmitoyl])-NH2 [peptide of SEQ ID NO: 181]
0.15 nM,96%,Ac-LEGREKVRAK(Ac)I[Aib][Aib]EG[Nle]STWS[Aib]RKK(Ac)[TtdDga][TtdDga]K([γGlu-γGlu-γGlu-Stearoyl])-NH2 (SMILES CCCCCCCCCCCCCCCCCC(=O)N[C@@H](CCC(=O)N[C@@H](CCC(=O)N[C@@H](CCC(=O)NCCCC[C@H](NC(=O)COCC(=O)NCCCOCCOCCOCCCNC(=O)COCC(=O)NCCCOCCOCCOCCCNC(=O)[C@H](CCCCNC(C)=O)NC(=O)[C@H](CCCCN)NC(=O)[C@H](CCCNC(=N)N)NC(=O)C(C)(C)NC(=O)[C@H](CO)NC(=O)[C@H](Cc1c[nH]c2ccccc12)NC(=O)[C@@H](NC(=O)[C@H](CO)NC(=O)[C@H](CCCC)NC(=O)CNC(=O)[C@H](CCC(=O)O)NC(=O)C(C)(C)NC(=O)C(C)(C)NC(=O)[C@@H](NC(=O)[C@H](CCCCNC(C)=O)NC(=O)[C@H](C)NC(=O)[C@H](CCCNC(=N)N)NC(=O)[C@@H](NC(=O)[C@H](CCCCN)NC(=O)[C@H](CCC(=O)O)NC(=O)[C@H](CCCNC(=N)N)NC(=O)CNC(=O)[C@H](CCC(=O)O)NC(=O)[C@H](CC(C)C)NC(C)=O)C(C)C)[C@@H](C)CC)[C@@H](C)O)C(N)=O)C(=O)O)C(=O)O)C(=O)O) [peptide of SEQ ID NO: 19]
1.18 nM,84%,Ac-LEGREKVRAK(Ac)I[Aib][Aib]EGQSTWS[Aib]RKK(Ac)K([PEG2′-PEG2′-PEG2′-PEG2′-γGlu-γGlu-γGlu-γGlu-Stearoyl])-NH2 [peptide of SEQ ID NO: 180]
1.5 nM,91%,Ac-LEGREKVRAQI[Aib][Aib]EGQSTWS[Aib]RKK(Ac)[TtdDga][TtdDga]K([γGlu-γGlu-γGlu-Palmitoyl])-NH2 (SMILES CCCCCCCCCCCCCCCC(=O)N[C@@H](CCC(=O)N[C@@H](CCC(=O)N[C@@H](CCC(=O)NCCCC[C@H](NC(=O)COCC(=O)NCCCOCCOCCOCCCNC(=O)COCC(=O)NCCCOCCOCCOCCCNC(=O)[C@H](CCCCNC(C)=O)NC(=O)[C@H](CCCCN)NC(=O)[C@H](CCCNC(=N)N)NC(=O)C(C)(C)NC(=O)[C@H](CO)NC(=O)[C@H](Cc1c[nH]c2ccccc12)NC(=O)[C@@H](NC(=O)[C@H](CO)NC(=O)[C@H](CCC(N)=O)NC(=O)CNC(=O)[C@H](CCC(=O)O)NC(=O)C(C)(C)NC(=O)C(C)(C)NC(=O)[C@@H](NC(=O)[C@H](CCC(N)=O)NC(=O)[C@H](C)NC(=O)[C@H](CCCNC(=N)N)NC(=O)[C@@H](NC(=O)[C@H](CCCCN)NC(=O)[C@H](CCC(=O)O)NC(=O)[C@H](CCCNC(=N)N)NC(=O)CNC(=O)[C@H](CCC(=O)O)NC(=O)[C@H](CC(C)C)NC(C)=O)C(C)C)[C@@H](C)CC)[C@@H](C)O)C(N)=O)C(=O)O)C(=O)O)C(=O)O) [peptide of SEQ ID NO: 177]
0.08 nM,94%,Ac-LEGREKVRAK(Ac)I[Aib][Aib]EG[Nle]STFS[αMeK]RAK(Ac)K([TTDS″-TTDS″-TTDS″-γGlu-γGlu-γGlu-Palmitoyl])-NH2 [peptide of SEQ ID NO: 183]
